# Results taken from patent US20050260733.
# B1: recombinant human ADAMTS-8 with C-terminal Strep-tag (protein)
# chain: RFVSEARFVETLLVADASMAAFYGADLQNHILTLMSVAARIYKHPSIKNSINLMVVKVLIVEDEKWGPEVSDNGGLTLRNFCNWQRRFNQPSDRHPEHYDTAILLTRQNFCGQEGLCDTLGVADIGTICDPNKSCSVIEDEGLQAAHTLAHELGHVLSMPHDDSKPCTRLFGPMGKHHVMAPLFVHLNQTLPWSPCSAMYLTELLDGGHGDCLLDAPRAALPLPTGLPGRMALYQLDQQCRQIFGPDFRHCPNTSAQDVCAQLWCHTDGAEPLCHTKNGSLPWADGTPCGPGHLCSEGSCLPEEEVERPKPVADGGWAPWGPWGECSRTCGGGVQFSHRECKDPEPQNGGRYCLGRRAKYQSCHTEECPPDGKSFREQQCEKYNAYNYTDMDGNLLQWVPKYAGVSPRDRCKLFCRARGRSEFKVFEAKVIDGTLCGPETLAICVRGQCVKAGCDHVVDSPRKLDKCGVCGGKGNSCRKVSGSLTPTNYGYNDIVTIPAGATNIDVKQRSHPGVQNDGNYLALKTADGQYLLNGNLAISAIEQDILVKGTILKYSGSIATLERLQSFRPLPEPLTVQLLTVPGEVFPPKVKYTFFVPNDVDFSMQSSKERATTNIIQPLLHAQWVLGDWSECSSTCGAGWQRRTVECRDPSGQASATCNKALKPEDAKPCESQLCPLGSGSAWSHPQFEK
# B2: recombinant C-terminally truncated ADAMTS-8 (protein)
# chain: MLPAPAAPRWPPLLLLLLLLLLPLARGAPARPAAGGQASELVVPTRLPGSAGELALHLSAFGKGFVLRLAPDDSFLAPEFKIERLGGSGRATGGERGLRGCFFSGTVNGEPESLAAVSLCRGLSGSFLLDGEEFTIQPQGAGGSLAQPHRLQRWGPAGARPLPRGPEWEVETGEGQRQERGDHQEDSEEESQEEEAEGASEPPPPLGATSRTKRFVSEARFVETLLVADASMAAFYGADLQNHILTLMSVAARIYKHPSIKNSINLMVVKVLIVEDEKWGPEVSDNGGLTLRNFCNWQRRFNQPSDRHPEHYDTAILLTRQNFCGQEGLCDTLGVADIGTICDPNKSCSVIEDEGLQAAHTLAHELGHVLSMPHDDSKPCTRLFGPMGKHHVMAPLFVHLNQTLPWSPCSAMYLTELLDGGHGDCLLDAPRAALPLPTGLPGRMALYQLDQQCRQIFGPDFRHCPNTSAQDVCAQLWCHTDGAEPLCHTKNGSLPWADGTPCGPGHLCSEGSCLPEEEVERPKPVADGGWAPWGPWGECSRTCGGGVQFSHRECKDPEPQNGGRYCLGRRAKYQSCHTEECPPDGKSFREQQCEKYNAYNYTDMDGNLLQWVPKYAGVSPRDRCKLFCRARGRSEFKVFEAKVIDGTLCGPETLAICVRGQCVKAGCDHVVDSPRKLDKCGVCGGKGNSCRKVSGSLTPTNYGYNDIVTIPAGATNIDVKQRSHPGVQNDGNYLALKTADGQYLLNGNLAISAIEQDILVKGTILKYSGSIATLERLQSFRPLPEPLTVQLLTVPGEVFPPKVKYTFFVPNDVDFSMQSSKERATTNIIQPLLHAQWVLGDWSECSSTCGAGWQRRTVECRDPSGQASATCNKALKPEDAKPCESQLCPL
# Tests used:
# [1] = target: undigested bovine aggrecan, P13608
# [2] = target: T1, α-2 macroglobulin
# T1 sequence (P01023 24-1474, species assumed, looked up): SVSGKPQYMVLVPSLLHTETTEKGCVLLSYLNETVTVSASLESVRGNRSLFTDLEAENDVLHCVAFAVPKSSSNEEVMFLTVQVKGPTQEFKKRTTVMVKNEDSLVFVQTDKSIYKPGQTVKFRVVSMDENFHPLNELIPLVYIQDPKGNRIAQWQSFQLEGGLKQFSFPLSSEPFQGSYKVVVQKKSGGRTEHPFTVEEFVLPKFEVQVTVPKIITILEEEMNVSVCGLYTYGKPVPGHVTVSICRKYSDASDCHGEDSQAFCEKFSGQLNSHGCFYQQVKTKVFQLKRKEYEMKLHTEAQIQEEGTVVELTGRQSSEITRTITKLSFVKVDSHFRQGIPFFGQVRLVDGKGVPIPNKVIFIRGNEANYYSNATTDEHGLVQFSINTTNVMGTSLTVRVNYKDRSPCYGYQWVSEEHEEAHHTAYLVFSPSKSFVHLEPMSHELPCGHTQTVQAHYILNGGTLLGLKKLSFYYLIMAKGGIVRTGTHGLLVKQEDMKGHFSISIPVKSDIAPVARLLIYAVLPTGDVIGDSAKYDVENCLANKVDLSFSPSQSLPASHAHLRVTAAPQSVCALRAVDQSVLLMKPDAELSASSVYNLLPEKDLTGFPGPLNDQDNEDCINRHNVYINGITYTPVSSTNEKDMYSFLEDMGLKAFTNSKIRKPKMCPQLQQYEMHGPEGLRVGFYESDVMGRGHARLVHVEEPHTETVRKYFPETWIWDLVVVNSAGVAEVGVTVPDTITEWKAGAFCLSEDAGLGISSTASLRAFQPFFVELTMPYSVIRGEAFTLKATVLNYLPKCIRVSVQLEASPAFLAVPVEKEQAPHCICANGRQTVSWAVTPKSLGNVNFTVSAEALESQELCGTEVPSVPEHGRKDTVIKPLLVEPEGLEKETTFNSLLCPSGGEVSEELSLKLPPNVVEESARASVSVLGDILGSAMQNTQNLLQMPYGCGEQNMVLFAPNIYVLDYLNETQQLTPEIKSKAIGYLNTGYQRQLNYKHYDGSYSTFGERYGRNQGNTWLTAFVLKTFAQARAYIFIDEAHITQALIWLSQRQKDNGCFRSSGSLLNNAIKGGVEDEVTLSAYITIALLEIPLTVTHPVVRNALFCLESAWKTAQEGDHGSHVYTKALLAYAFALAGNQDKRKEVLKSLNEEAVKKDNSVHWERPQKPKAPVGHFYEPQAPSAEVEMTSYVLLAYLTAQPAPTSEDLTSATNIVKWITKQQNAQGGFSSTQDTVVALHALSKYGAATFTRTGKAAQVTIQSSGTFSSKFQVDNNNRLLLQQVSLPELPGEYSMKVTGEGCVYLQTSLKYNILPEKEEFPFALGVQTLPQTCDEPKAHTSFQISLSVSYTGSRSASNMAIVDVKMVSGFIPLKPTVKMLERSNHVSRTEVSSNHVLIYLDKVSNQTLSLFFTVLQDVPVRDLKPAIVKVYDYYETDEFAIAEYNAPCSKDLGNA
# Sequence of undigested bovine aggrecan, P13608 (P13608 20-2364): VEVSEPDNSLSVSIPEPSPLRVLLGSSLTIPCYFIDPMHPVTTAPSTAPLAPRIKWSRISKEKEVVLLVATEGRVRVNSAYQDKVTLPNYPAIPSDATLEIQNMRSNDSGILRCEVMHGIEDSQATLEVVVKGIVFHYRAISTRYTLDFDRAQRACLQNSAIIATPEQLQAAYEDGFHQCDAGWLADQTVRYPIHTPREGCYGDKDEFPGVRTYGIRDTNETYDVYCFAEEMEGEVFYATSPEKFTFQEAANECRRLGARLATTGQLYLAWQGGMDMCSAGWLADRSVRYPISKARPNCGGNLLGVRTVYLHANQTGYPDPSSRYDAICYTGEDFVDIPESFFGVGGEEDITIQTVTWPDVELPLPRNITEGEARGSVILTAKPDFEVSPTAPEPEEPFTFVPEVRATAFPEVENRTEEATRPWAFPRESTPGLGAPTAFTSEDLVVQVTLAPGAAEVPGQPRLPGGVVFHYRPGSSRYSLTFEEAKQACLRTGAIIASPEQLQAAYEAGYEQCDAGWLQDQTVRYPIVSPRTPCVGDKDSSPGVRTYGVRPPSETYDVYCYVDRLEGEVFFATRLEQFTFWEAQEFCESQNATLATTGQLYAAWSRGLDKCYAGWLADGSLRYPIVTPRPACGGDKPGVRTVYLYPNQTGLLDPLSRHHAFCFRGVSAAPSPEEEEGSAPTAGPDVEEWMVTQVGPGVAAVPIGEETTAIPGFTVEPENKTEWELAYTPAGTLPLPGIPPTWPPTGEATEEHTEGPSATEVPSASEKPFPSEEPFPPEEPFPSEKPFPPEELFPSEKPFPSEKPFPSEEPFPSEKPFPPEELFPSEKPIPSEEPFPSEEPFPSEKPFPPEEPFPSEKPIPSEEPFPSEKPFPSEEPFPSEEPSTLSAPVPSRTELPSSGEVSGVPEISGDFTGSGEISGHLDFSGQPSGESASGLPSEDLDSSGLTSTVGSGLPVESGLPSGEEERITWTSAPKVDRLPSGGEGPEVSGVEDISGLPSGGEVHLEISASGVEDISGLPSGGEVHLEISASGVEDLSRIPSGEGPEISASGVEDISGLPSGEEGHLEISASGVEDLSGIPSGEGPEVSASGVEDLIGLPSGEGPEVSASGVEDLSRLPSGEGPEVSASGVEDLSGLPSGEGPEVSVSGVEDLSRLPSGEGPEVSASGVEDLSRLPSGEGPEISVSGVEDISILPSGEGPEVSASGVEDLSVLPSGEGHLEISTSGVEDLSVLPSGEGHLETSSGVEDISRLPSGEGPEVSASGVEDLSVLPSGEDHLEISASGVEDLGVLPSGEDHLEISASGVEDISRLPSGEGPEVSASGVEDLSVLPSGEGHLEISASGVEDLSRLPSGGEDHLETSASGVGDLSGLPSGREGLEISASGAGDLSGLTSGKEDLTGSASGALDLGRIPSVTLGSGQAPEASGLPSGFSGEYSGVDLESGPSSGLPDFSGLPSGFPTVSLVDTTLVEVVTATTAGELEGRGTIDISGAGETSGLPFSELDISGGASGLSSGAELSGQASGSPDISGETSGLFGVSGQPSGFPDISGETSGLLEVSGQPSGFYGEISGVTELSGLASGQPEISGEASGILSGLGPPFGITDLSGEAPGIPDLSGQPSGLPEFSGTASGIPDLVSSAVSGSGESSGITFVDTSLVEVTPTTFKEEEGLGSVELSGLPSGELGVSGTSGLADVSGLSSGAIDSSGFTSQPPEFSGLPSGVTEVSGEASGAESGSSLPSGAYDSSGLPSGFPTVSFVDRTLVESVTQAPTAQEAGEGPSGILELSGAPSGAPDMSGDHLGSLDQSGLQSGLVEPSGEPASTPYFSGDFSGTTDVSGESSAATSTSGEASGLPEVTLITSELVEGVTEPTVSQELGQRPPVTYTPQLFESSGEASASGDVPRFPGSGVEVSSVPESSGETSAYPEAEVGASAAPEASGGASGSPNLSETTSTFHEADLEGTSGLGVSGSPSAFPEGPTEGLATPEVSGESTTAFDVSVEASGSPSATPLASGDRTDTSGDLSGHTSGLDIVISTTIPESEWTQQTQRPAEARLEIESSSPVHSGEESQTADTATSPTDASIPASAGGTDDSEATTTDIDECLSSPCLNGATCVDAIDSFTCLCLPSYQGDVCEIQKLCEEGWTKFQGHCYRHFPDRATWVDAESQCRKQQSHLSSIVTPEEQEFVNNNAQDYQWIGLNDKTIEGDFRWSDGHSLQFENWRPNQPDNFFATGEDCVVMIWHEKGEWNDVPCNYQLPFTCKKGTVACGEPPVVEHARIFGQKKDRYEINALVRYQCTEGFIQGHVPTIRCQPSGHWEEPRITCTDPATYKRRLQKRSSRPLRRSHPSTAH
Protein,aggrecan cleavage seen by neoepitope Western blot [1],lowest enzyme:substrate ratio at which cleavage is detected by Western blot [1],aggrecan cleavage by AGG-C1 Western blotting [1],α2-macroglobulin assay [2]
B1,MAb BC-3 immunoreactive bands increased in intensity with increasing amounts of ADAMTS-8 protein relative to aggrecan substrate,cleavage of bovine articular cartilage aggrecan by ADAMTS-8 at an enzyme:substrate ratio of 1:0.5 using the BC-3 neoepitope MAb ... can be readily detected,–,–
B2,–,–,it seemed to be no more active than full-length recombinant ADAMTS-8 on aggrecan substrate as judged by AGG-C1 Western blotting,the purified protein was active as judged by α2-macroglobulin assay
